Data from the supplement of paper PMC7125110.
± gives the standard error. Fewer inactive variants are shown than the library holds.

B1: glmS ribozyme (parent)
chain: AUAAAAGCGCCAGAACUACAGAAAUGUAGUUGACGAGGAGGAGGUUUAUCGAAUUUUCGGCGGAUGCCUCCAAA

What was measured:
Settings in all cases: with glucosamine-6-phosphate
glucosamine-6-phosphate [1] = variants of: B1; test: self-cleavage kobs at 640 uM GlcN6P; higher = faster cleavage; RNA array
In short: (§1)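 Tiles bearing barcoded ribozyme variants, transcribed in situ by E. coli RNA polymerase on sequenced MiSeq chips, were imaged over ~14 h at 37 °C using a hybridised Cy3 probe. Glucosamine-6-phosphate was supplied at 40 μM to 10 mM in HEPES/KCl/Mg(OAc)2 buffer. kobs came from one- or two-exponential decay fits to normalised per-tile medians, and weighted Michaelis–Menten fits then provided kcat and KM.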

glucosamine-6-phosphate [2] = variants of: B1; test: self-cleavage kobs at 2500 uM GlcN6P; higher = faster cleavage; RNA array
In short: as §1

glucosamine-6-phosphate [3] = variants of: B1; test: self-cleavage kobs at 10000 uM GlcN6P; higher = faster cleavage; RNA array
In short: as §1

Variant | self-cleavage kobs at 640 uM GlcN6P (glucosamine-6-phosphate [1]) [s⁻¹] | self-cleavage kobs at 2500 uM GlcN6P (glucosamine-6-phosphate [2]) [s⁻¹] | self-cleavage kobs at 10000 uM GlcN6P (glucosamine-6-phosphate [3]) [s⁻¹]
U46C U69G | 8.03e-05 ± 1.7e-05 | 0.000153 ± 2.7e-05 | –
C8G C58U G59C C61U C67G | < 1e-05 | < 1e-05 | –
C16G U45A C58A | 6.95e-05 ± 1.6e-05 | 0.000197 ± 3.9e-05 | –
A33C U45C U47A A48G | < 1e-05 | – | –
C11A G32A G66U | < 1e-05 | – | –
A12C G38C U49C C50A | < 1e-05 | < 1e-05 | –
A36U A39G U45G C61U G62C | < 1e-05 | < 1e-05 | < 1e-05
C8G U55C C71A | < 1e-05 | < 1e-05 | –
G9U G32A G43C | < 1e-05 | – | –
A6C A53U C58U | < 1e-05 | < 1e-05 | –
U31A U47C G51A G66A | < 1e-05 | < 1e-05 | –
A42C C61U C68G C71U | < 1e-05 | – | –
G9U U45G A52G | < 1e-05 | – | –
G9A G37A U46C | < 1e-05 | – | –
G13U U30C C61A | < 1e-05 | – | –
A53U U55C U65A | 0.00055 ± 9.7e-05 | 0.000947 ± 0.00018 | 0.00137 ± 0.00021
A33U A42G C68A | < 1e-05 | < 1e-05 | –
G9C C10G A14G G41U A64C | < 1e-05 | < 1e-05 | –
A14G G38U G66A | < 1e-05 | – | –
A6G G37A U46A U54A | < 1e-05 | – | < 1e-05
G9U G62C C67U | < 1e-05 | < 1e-05 | –

Variant | self-cleavage kobs at 640 uM GlcN6P (glucosamine-6-phosphate [1]) [s⁻¹] | self-cleavage kobs at 2500 uM GlcN6P (glucosamine-6-phosphate [2]) [s⁻¹] | self-cleavage kobs at 10000 uM GlcN6P (glucosamine-6-phosphate [3]) [s⁻¹]
A15G A48U C70G | 5.16e-05 ± 1.9e-05 | 6.9e-05 ± 1.6e-05 | –
A36U G41U U55A | < 1e-05 | < 1e-05 | –
A6U C16U U54A | 4.1e-05 ± 1.3e-05 | 0.000121 ± 3e-05 | –
A12U A15U C68G | 8.06e-05 ± 2.7e-05 | – | –
U31G G38A U57C C58U G66C | < 1e-05 | – | –
G43C U69G | < 1e-05 | – | < 1e-05
C8G G32C A33U C67U | < 1e-05 | < 1e-05 | –
U57C C61U G63A | < 1e-05 | < 1e-05 | < 1e-05
G7U C61G C67A | 0.000105 ± 4.6e-05 | 0.00214 ± 0.00087 | –
A15C C16U U56C | 7.03e-05 ± 1.8e-05 | 0.000249 ± 7.3e-05 | –
G13U A14G G29C U49A | < 1e-05 | – | –
C11G C71G | 0.000382 ± 0.00018 | – | –
G7U U30G G63U | < 1e-05 | – | –
G13C G29A G40C | < 1e-05 | – | –
G40A A42G U46A | 0.000129 ± 4.5e-05 | 0.000599 ± 0.0003 | 0.00096 ± 0.00023
A15U G41C G44U A48U U49A G51U C67U | < 1e-05 | – | –
G9U G35A G44U A53C C71G | < 1e-05 | < 1e-05 | –
A15G A36U U45G U46G A64G | < 1e-05 | – | –
G37C C68U U69G | 6e-05 ± 2e-05 | – | –
G9U G13C G43A | < 1e-05 | – | –
G35C G37U A64G C68U | < 1e-05 | – | –

Variant | self-cleavage kobs at 640 uM GlcN6P (glucosamine-6-phosphate [1]) [s⁻¹] | self-cleavage kobs at 2500 uM GlcN6P (glucosamine-6-phosphate [2]) [s⁻¹] | self-cleavage kobs at 10000 uM GlcN6P (glucosamine-6-phosphate [3]) [s⁻¹]
A39G G40U C50U | < 1e-05 | < 1e-05 | < 1e-05
C10U G43U U45G | < 1e-05 | < 1e-05 | –
G7U G9A U31C G35A A52U | < 1e-05 | – | –
G60U G62A C67U | < 1e-05 | – | –
G44U A48G C50G | < 1e-05 | < 1e-05 | < 1e-05
G38C U56G C58U | < 1e-05 | – | –
C11A A15U A64C | < 1e-05 | < 1e-05 | –
A14U U30G G40A | 0.000126 ± 3.6e-05 | 0.000424 ± 0.00014 | –
C10U G35C G60A | < 1e-05 | < 1e-05 | –
U30G C34A C68A | < 1e-05 | – | –
G7U G41C C58A | < 1e-05 | < 1e-05 | –
A48G A53G C67G | 6.02e-05 ± 2.2e-05 | 6.1e-05 ± 2.3e-05 | –
C10U G35U G51A | < 1e-05 | – | –
A6C C16G G32U A33G G38U | < 1e-05 | – | < 1e-05
G41A U57C C67A | < 1e-05 | < 1e-05 | –
G13A A14C A42G C70U | 4.53e-05 ± 1.8e-05 | 9.61e-05 ± 1.4e-05 | –
G9A C10G G44A C70U | < 1e-05 | < 1e-05 | –
C11U G38A C67G | 7.1e-05 ± 3.3e-05 | – | –
G29A U45C U46G A53C C67G U69G | < 1e-05 | < 1e-05 | –
G38A G43U G51C | < 1e-05 | < 1e-05 | –
A6U A12U G37U | < 1e-05 | – | –
